Measured values from IntAct's records for PubMed 22653441.

B1: Serine/threonine-protein kinase PAK 4 (Homo sapiens), O96013 (parent)
chain: MFGKRKKRVEISAPSNFEHRVHTGFDQHEQKFTGLPRQWQSLIEESARRPKPLVDPACITSIQPGAPKTIVRGSKGAKDGALTLLLDEFENMSVTRSNSLRRDSPPPPARARQENGMPEEPATTARGGPGKAGSRGRFAGHSEAGGGSGDRRRAGPEKRPKSSREGSGGPQESSRDKRPLSGPDVGTPQPAGLASGAKLAAGRPFNTYPRADTDHPSRGAQGEPHDVAPNGPSAGGLAIPQSSSSSSRPPTRARGAPSPGVLGPHASEPQLAPPACTPAAPAVPGPPGPRSPQREPQRVSHEQFRAALQLVVDPGDPRSYLDNFIKIGEGSTGIVCIATVRSSGKLVAVKKMDLRKQQRRELLFNEVVIMRDYQHENVVEMYNSYLVGDELWVVMEFLEGGALTDIVTHTRMNEEQIAAVCLAVLQALSVLHAQGVIHRDIKSDSILLTHDGRVKLSDFGFCAQVSKEVPRRKSLVGTPYWMAPELISRLPYGPEVDIWSLGIMVIEMVDGEPPYFNEPPLKAMKMIRDNLPPRLKNLHKVSPSLKGFLDRLLVRDPAQRATAAELLKHPFLAKAGPPASIVPLMRQNRTR

Variants of: B1
Conditions: with cdc42_human CDC42, P60953
cdc42_human CDC42, P60953, sequence (P60953 whole entry, looked up): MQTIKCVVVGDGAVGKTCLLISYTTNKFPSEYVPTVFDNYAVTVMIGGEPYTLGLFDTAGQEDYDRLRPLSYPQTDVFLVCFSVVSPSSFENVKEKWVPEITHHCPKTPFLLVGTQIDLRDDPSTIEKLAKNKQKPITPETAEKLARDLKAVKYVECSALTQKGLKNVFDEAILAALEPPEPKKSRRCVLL

Row | Variant | effect of a mutation on the interaction
1 | R48E | disrupting interaction
2 | R49E | disrupting interaction
3 | T60E | disrupting interaction
